# Experimental data published in the DeepSol protein solubility set.
# Test: soluble on expression in E. coli; label from the status in PepcDB or PDB records
row,Sequence,soluble on expression in E. coli
1,MKVAFVIRKDCKRCATIAKSIIELIPPDWEKIYDTEAAKFLGGVGKDITEISADIIIAIGGDGTVLRILQNAKGPVLGINMGGLGFLTEIEIDEVGSSTYKLIRGEYKINEAMKLKVYINGRRLEDCTNEAVVHTDRIARIRQFKIYVDGHFLTTIKSDGVIVATPTGSSSYSSSAGGPLLLPTVRGMVISYLAPYSSRIKPVVVPSESTVEIKIAGNDQDSLLILDGQKEYKIKSGDTVSISMSEEKARFVSFRESIYDRLRDKVIKHVVN,soluble
2,MKVAVLGAAGGIGQALALLLKTQLPSGSELSLYDIAPVTPGVAVDLSHIPTAVKIKGFSGEDATPALEGADVVLISAGVARKPGMDRSDLFNVNAGIVKNLVQQVAKTCPKACIGIITNPVNTTVAIAAEVLKKAGVYDKNKLFGVTTLDIICSNTFVAELKGKQPGEVEVPVIGGHSGVTILPLLSQVPGVSFTEQEVADLTKRIQNAGTEVVEAKAGGGSATLSMGQAAARFGLSLVRALQGEQGVVECAYVEGDGQYARFFSQPLLLGKNGVEERKSIGTLSAFEQNALEGMLDTLKKDIALGQEFVNK,soluble
3,MKVEQIYTGCLAQGAYYITSMGEAAIIDPLREITPYLERLKRDGVKLKYILETHFHADFVSGHLDLSRATGAPIVYGPTAKPGFDAIVAEDNQIFELGNVKIRVLHTPGHTMESSCFLLIDENGREAALFSGDTLFLGDVGRPDLAQKAANLTQEELAGLLYDSLYTKILPLSDDIIVYPAHGAGSACGKNMMQETVDSLGNQKRVNYALNQPGKEAFIASVIEGLLPPPAYFGGNVAMNKMGYDSIDNVMERGLSALSATDFEAIAKTSDALVLDTRAPGVFAQGFIPRSINIGLDGDFAPWVGTMIVDVKQPLLLVADPGREQEVITRLSRVGFDQVLGYLDGGFDTWNASGKEIDHVECITANEFAERFCPEESLVFDVRKESEYAAEHVEGAYSRPLAYINDWIQDIPRDRHFYLHCIGGYRSMIASSILLSRGYRNFTDIEGGFASIAQTGVPKTDYVCQSKVSKKLEHHHHHH,soluble
4,MKVGNQMNEEQLSKRLEKVASYITKNERIADIGSDHAYLPCFAVKNQTASFAIAGEVVDGPFQSAQKQVRSSGLTEQIDVRKGNGLAVIEKKDAIDTIVIAGMGGTLIRTILEEGAAKLAGVTKLILQPNIAAWQLREWSEQNNWLITSEAILREDNKVYEIMVLAPSEKPVTWTKQEIFFGPCLLKEQSAIFKSKWRHEANTWQNIIQTISNNQPVSTENQAKIRELEHKIALVEDVLK,not soluble
5,MKVGQDKVVTIRYTLQVEGEVLDQGELSYLHGHRNLIPGLEEALEGREEGEAFQAHVPAEKAYGPHDPEGVQVVPLSAFPEDAEVVPGAQFYAQDMEGNPMPLTVVAVEGEEVTVDFNHPLAGKDLDFQVEVVKVREATPEELLHGHAHPSGHHHHHH,soluble
6,MKVIKSNKVTNKFKVSILISTYNKEKFIENTLNNILAQTMNKNDFELIIVDDCSTDNTLDIISKKIESFSNYQFVQLDENSGTPAKPRNLSIDLSKGKYIMFVDGDDWLPSDALENLYTLLKSNKTDYATGLTKYVYSDRIARSGVALSKIAYNKIGLKNFRKSFYHLAPAGRMMKSSVIKKNNIRFPEMIFGEDLQFFAEVFFNTKNISTTQDVVYCANRYDENISLVKSEASTVLNRIKWQNEAYRYLTKKYKNNKIFANLLYRIINKDILEGKFYKKGFIKEIDTLLPVFQDILNTIDNDFNSLDYADDTLNQHALTLIKNGDKEEIIDFVNFYLKKDEKPLYLSNDKYYYVYKENKYKKRMHIILQKIIKKDENIFLKLYSKNSELKYLEIKNRKDPTNYTVLEIKKHLFKTGEYTVQFKANELSKGKLALTVLDKDLNGAAIKSGMQFDFYETVNGNLGYIKKLEHHHHHH,soluble
7,MKVRVKAPCTSANLGVGFDVFGLCLKEPYDVIEVEAIDDKEIIIEVDDKNIPTDPDKNVAGIVAKKMIDDFNIGKGVKITIKKGVKAGSGLGSSAASSAGTAYAINELFKLNLDKLKLVDYASYGELASSGAKHADNVAPAIFGGFTMVTNYEPLEVLHIPIDFKLDILIAIPNISINTKEAREILPKAVGLKDLVNNVGKACGMVYALYNKDKSLFGRYMMSDKVIEPVRGKLIPNYFKIKEEVKDKVYGITISGSGPSIIAFPKEEFIDEVENILRDYYENTIRTEVGKGVEVV,soluble
8,MKVVELKNVKKIYPDGTIALKGVSLSVEEGEFLGVMGPSGSGKSTLLHLIGGLDKPSEGIVKVFGKEINHLDEDELAEMRKRKIAYVFQFYYLLEDFSVLENLTLIGELAGIKNPKKKALELLDFLRLSHRINHKPYQLSGGEQQRVAIGRALMVEPKLILADEPTGNLDSKEGFRIFELFKELNEKGITFVVATHNDSLKPFFGRIINLRDGEIVTQR,soluble
